Measured values from the supplement of paper PMC10126150.
± gives the standard deviation of the averaged measurements.

Tested on: ATP
Assay: switch fluorescence ratio, 500 uM ATP over buffer (Cy3 cluster intensity, sum of 5 cycles each) (fold (ratio)); higher = stronger signal-on switching upon ATP binding; sequences stand for … in TCGTCGGCAGCGTCAGATGTGTATAAGAGACAGTTTTTTTTTTTTTTTTTTTTTTTTT…TC
Settings: aptamer strand: ATP DNA aptamer (quencher-CACCTGGGGGAGTATTGCGGAGGAAGG + anchor), 100 nM annealed; ATP concentration: 500 uM
Method in brief: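 Switching-strand clusters labelled with Cy3 on a modified Illumina MiSeq flow-cell were annealed to 100 nM quencher-labelled ATP aptamer, imaged in selection buffer, and re-imaged after 15 min with 500 uM ATP at 22 °C. This was done over five cycles with NaOH stripping and re-annealing in between. The fluorescence ratio is summed target-cycle over summed buffer-cycle Cy3 intensity per cluster, averaged per switch-domain sequence, excluding clusters outside 100-1000 RFU.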
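Note: ATP exposure 15 min at 22 °C before imaging.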

| Sequence | switch fluorescence ratio |
| --- | --- |
| ACTAAGGGCG | 1.09 ± 0.019 |
| ACTAAGGGGA | 1.03 ± 0.0058 |
| ACTAATAAGA | 1.01 ± 0.019 |
| ACTAATAAGG | 1.04 ± 0.029 |
| ACTAATGCGC | 1.05 ± 0.019 |
| ACTAGAACAT | 1.052 ± 0.0042 |
| ACTAGGAAAA | 0.997 ± 0.011 |
| ACTAGGGACA | 1.24 ± 0.028 |
| ACTAGGGGAC | 1.06 ± 0.085 |
| ACTAGGGGTT | 1.23 ± 0.34 |
| ACTAGGTGCG | 1.06 ± 0.045 |
| ACTAGTTTTC | 0.9611 ± 0.0091 |
| ACTATAAGAA | 1.03 ± 0.014 |
| ACTATAGGAC | 1.07 ± 0.017 |
| ACTATATTTT | 1.04 ± 0.0067 |
| ACTATCGGCA | 1.02 ± 0.029 |
| ACTATCTTTG | 0.9924 ± 0.0098 |
| ACTATGACGT | 1.04 ± 0.017 |
| ACTATGAGTT | 0.9975 ± 0.0073 |
| ACTATTCGT | 0.99 ± 0.026 |
| ACTATTTGTT | 1.04 ± 0.027 |
| ACTCAATCTG | 1.0397 ± 0.00024 |
| ACTCAGGAGT | 1.011 ± 0.0031 |
| ACTCCAGGAG | 1.06 ± 0.025 |
| ACTCGAGGTT | 1.05 ± 0.013 |

| Sequence | switch fluorescence ratio |
| --- | --- |
| ACTCGGGGAG | 1 ± 0.013 |
| ACTCGGTTGG | 1.03 ± 0.037 |
| ACTCGTAACT | 0.9931 ± 0.0057 |
| ACTCGTTAAA | 0.978 ± 0.014 |
| ACTCGTTGTT | 1.02 ± 0.024 |
| ACTCTACCGT | 1.29 ± 0.057 |
| ACTCTAGTTT | 1.048 ± 0.0027 |
| ACTCTTATAA | 1.048 ± 0.0059 |
| ACTGAAGCAT | 1.17 ± 0.021 |
| ACTGACTCA | 1.23 ± 0.048 |
| ACTGAGGATG | 1.06 ± 0.0063 |
| ACTGAGTTTA | 1.02 ± 0.019 |
| ACTGATGACG | 1.06 ± 0.078 |
| ACTGATGGAC | 1.06 ± 0.027 |
| ACTGATGGGT | 1 ± 0.013 |
| ACTGATTTAT | 1.01 ± 0.028 |
| ACTGCAAAAT | 1.127 ± 0.0017 |
| ACTGCTACGA | 1.36 ± 0.018 |
| ACTGGACACA | 1.22 ± 0.069 |
| ACTGGAGGAT | 1.05 ± 0.013 |
| ACTGGCAGTT | 1.01 ± 0.037 |
| ACTGGCTGTT | 1.03 ± 0.035 |
| ACTGGGATGG | 1.031 ± 0.0089 |
| ACTGGTATTG | 1.02 ± 0.025 |
| ACTGGTTAGT | 1 ± 0.045 |

| Sequence | switch fluorescence ratio |
| --- | --- |
| ACTGGTTTAG | 0.9975 ± 0.0095 |
| ACTGGTTTGG | 1.04 ± 0.063 |
| ACTGGTTTTT | 0.987 ± 0.036 |
| ACTGTACCCT | 1.22 ± 0.016 |
| ACTGTCATTA | 1.08 ± 0.019 |
| ACTGTCGTCT | 1.0405 ± 0.00033 |
| ACTGTGTACC | 1.04 ± 0.015 |
| ACTGTGTGGC | 0.992 ± 0.012 |
| ACTGTTAGCA | 1.061 ± 0.0046 |
| ACTGTTCCGA | 1.05 ± 0.054 |
| ACTGTTTCTC | 0.996 ± 0.022 |
| ACTGTTTTAT | 1.01 ± 0.038 |
| ACTTAAAATG | 1.06 ± 0.082 |
| ACTTAGAATA | 1.032 ± 0.0033 |
| ACTTAGTCTA | 1.023 ± 0.0066 |
| ACTTATAGGA | 1.03 ± 0.012 |
| ACTTATGGGA | 1.02 ± 0.019 |
| ACTTCAGATT | 0.995 ± 0.012 |
| ACTTCGAATA | 1.36 ± 0.07 |
| ACTTCTAGGC | 1.02 ± 0.058 |
| ACTTCTGGCT | 0.9717 ± 0.0054 |
| ACTTGATACG | 1.08 ± 0.063 |
| ACTTGCGCAG | 1.05 ± 0.043 |
| ACTTGGACTG | 1.03 ± 0.042 |
| ACTTGGCAAT | 4.347 ± 0.014 |

| Sequence | switch fluorescence ratio |
| --- | --- |
| ACTTGGGGGG | 0.994 ± 0.012 |
| ACTTGGTAT | 1 ± 0.07 |
| ACTTGTAGTA | 1.01 ± 0.012 |
| ACTTGTGGTC | 0.9952 ± 0.0084 |
| ACTTGTTCGT | 1.006 ± 0.0075 |
| ACTTTAGTTC | 1.01 ± 0.036 |
| ACTTTATCTA | 1.03 ± 0.061 |
| ACTTTATGCT | 1.01 ± 0.024 |
| ACTTTCTCAG | 1.077 ± 0.0049 |
| ACTTTGAA | 1.01 ± 0.037 |
| ACTTTGAGTG | 0.976 ± 0.015 |
| ACTTTGGGCA | 0.99606 ± 0.00098 |
| ACTTTGGGGG | 1.01 ± 0.042 |
| ACTTTGGTCT | 1.04 ± 0.051 |
| ACTTTGTCGG | 0.995 ± 0.038 |
| ACTTTTAAGG | 0.983 ± 0.024 |
| ACTTTTAGGT | 1.0193 ± 0.00024 |
| ACTTTTCGGC | 0.9915 ± 0.0073 |
| ACTTTTCGGG | 0.9921 ± 0.0056 |
| ACTTTTGAAA | 0.994 ± 0.014 |
| ACTTTTGGGG | 1.005 ± 0.0023 |
| ACTTTTGGGT | 0.9602 ± 0.0088 |
| ACTTTTTAGT | 0.986 ± 0.05 |
| ACTTTTTATA | 0.968 ± 0.082 |
| ACTTTTTGGG | 1.01 ± 0.065 |

| Sequence | switch fluorescence ratio |
| --- | --- |
| ACTTTTTTAG | 0.992 ± 0.019 |
| ACTTTTTTAT | 1.01 ± 0.018 |
| AGAAAAAAAG | 1.02 ± 0.03 |
| AGAAAAAAGC | 0.989 ± 0.015 |
| AGAAAAGGTG | 1.19 ± 0.13 |
| AGAAAAGTAC | 1.08 ± 0.076 |
| AGAAAAGTGG | 0.985 ± 0.019 |
| AGAAAAGTGT | 1.0276 ± 0.00047 |
| AGAAACCGTA | 1.1 ± 0.031 |
| AGAAACCGTT | 1.03 ± 0.021 |
| AGAAACGGGG | 1.08 ± 0.15 |
| AGAAAGGTTG | 0.984 ± 0.019 |
| AGAAATGAAT | 1.04 ± 0.024 |
| AGAAATTATA | 1.001 ± 0.0073 |
| AGAAATTGGT | 1.02 ± 0.029 |
| AGAAATTGTT | 0.999 ± 0.047 |
| AGAACTGGTT | 0.961 ± 0.034 |
| AGAAGAAGGG | 1.03 ± 0.017 |
| AGAAGAATTT | 1.02 ± 0.016 |
| AGAAGATCAG | 1.02 ± 0.015 |
| AGAAGATCTA | 0.9942 ± 0.0081 |
| AGAAGCCCAC | 1.09 ± 0.019 |
| AGAAGCGTGG | 1.01 ± 0.025 |
| AGAAGGCAAC | 1.015 ± 0.0017 |
| AGAAGGCTAG | 1.02 ± 0.05 |

| Sequence | switch fluorescence ratio |
| --- | --- |
| AGAAGGGCA | 0.983 ± 0.042 |
| AGAAGGTGCC | 1.05 ± 0.049 |
| AGAAGTACTA | 1.22 ± 0.036 |
| AGAAGTGGCG | 1.01 ± 0.03 |
| AGAAGTTTTG | 1.04 ± 0.054 |
| AGAATATTAA | 0.978 ± 0.013 |
| AGAATATTTT | 0.963 ± 0.011 |
| AGAATGGGAA | 1 ± 0.019 |
| AGAATGGGGA | 1.02 ± 0.0092 |
| AGAATGTTTT | 0.989 ± 0.033 |
| AGAATTAACT | 0.998 ± 0.025 |
| AGAATTATAT | 0.973 ± 0.023 |
| AGAATTGGGT | 0.9964 ± 0.0014 |
| AGACACGAAT | 0.9811 ± 0.0068 |
| AGACAGGGGT | 1.07 ± 0.098 |
| AGACAGGTAA | 1.01 ± 0.02 |
| AGACATATTT | 1 ± 0.027 |
| AGACATCTTT | 1.016 ± 0.0062 |
| AGACATGTTT | 0.981 ± 0.014 |
| AGACGAAAGA | 1.02 ± 0.027 |
| AGACGATTGT | 0.985 ± 0.018 |
| AGACGCAGGG | 1.034 ± 0.0053 |
| AGACGCAGTG | 0.9834 ± 0.0038 |
| AGACGCGGTG | 1.044 ± 0.0038 |
| AGACGGGATT | 1.03 ± 0.021 |

| Sequence | switch fluorescence ratio |
| --- | --- |
| AGACGGGCAC | 1.074 ± 0.0063 |
| AGACGGGGCC | 1.01 ± 0.018 |
| AGACGGGGTC | 0.9848 ± 0.0021 |
| AGACGGGTGC | 1.08 ± 0.074 |
| AGACGGTATG | 1.02 ± 0.0061 |
| AGACGGTTTG | 1.01 ± 0.017 |
| AGACGTTTTT | 1 ± 0.033 |
| AGACTACTAC | 1.12 ± 0.025 |
| AGACTAGCCA | 0.981 ± 0.081 |
| AGACTCTCG | 1.02 ± 0.098 |
| AGACTCTGGT | 0.969 ± 0.015 |
| AGACTGCCTG | 0.971 ± 0.077 |
| AGACTGGGGC | 1.03 ± 0.03 |
| AGACTTATTT | 1.01 ± 0.013 |
| AGAGAACTTG | 0.983 ± 0.1 |
| AGAGAAGAGA | 0.998 ± 0.023 |
| AGAGAATACG | 1 ± 0.031 |
| AGAGACAGCT | 0.994 ± 0.05 |
| AGAGACGGCA | 1.01 ± 0.032 |
| AGAGAGATGG | 0.977 ± 0.018 |
| AGAGAGCAAG | 1.07 ± 0.043 |
| AGAGATAGGG | 1.01 ± 0.019 |
| AGAGATGAGA | 1.02 ± 0.031 |
| AGAGATGAGG | 0.974 ± 0.042 |
| AGAGCATGAT | 1.03 ± 0.024 |

| Sequence | switch fluorescence ratio |
| --- | --- |
| AGAGCGGGCT | 1.04 ± 0.036 |
| AGAGCGTGGT | 0.999 ± 0.023 |
| AGAGGAGTCT | 0.9706 ± 0.0019 |
| AGAGGAGTGT | 0.943 ± 0.0098 |
| AGAGGCGAGG | 0.9913 ± 0.0013 |
| AGAGGCTCAG | 1.08 ± 0.069 |
| AGAGGCTTTT | 1.02 ± 0.046 |
| AGAGGGATGG | 0.9919 ± 0.0076 |
| AGAGGGGAAG | 1.005 ± 0.0087 |
| AGAGGGGTCT | 1.02 ± 0.043 |
| AGAGGGTTGG | 0.986 ± 0.022 |
| AGAGGGTTGT | 0.992 ± 0.031 |
| AGAGGGTTTG | 0.998 ± 0.025 |
| AGAGGTATCT | 0.9872 ± 0.0046 |
| AGAGGTCTGT | 0.986 ± 0.0056 |
| AGAGGTCTTG | 0.979 ± 0.029 |
| AGAGGTGACA | 0.999 ± 0.061 |
| AGAGGTTGCA | 0.994 ± 0.032 |
| AGAGGTTGCG | 0.955 ± 0.073 |
| AGAGTACGGC | 1.09 ± 0.017 |
| AGAGTAGGGT | 1 ± 0.0043 |
| AGAGTATTAG | 1 ± 0.013 |
| AGAGTCAACT | 1 ± 0.042 |
| AGAGTCATGT | 1.01 ± 0.029 |
| AGAGTCATTA | 0.995 ± 0.012 |
